This note sets out measurements from US20230279491A1, “TREATMENTS FOR A SUB-POPULATION OF INFLAMMATORY BOWEL DISEASE PATIENTS” (CEDARS-SINAI MEDICAL CENTER, priority 2020, published 2023).

The experiment concerns T-cells. Put plainly: TL1A treatment of T-cells (IL12+IL18, TL1A+IL12+IL18, untreated): miR-155, INFG and IL22 expression. The format is cell-based. The text has this:
T-cells were divided into 3 treatment groups: cells treated with IL12+IL18, cells treated with TL1A+IL12+IL18, and untreated cells (ut), as depicted in FIG. 13A.

[1] abbreviates: TL1A+IL12+IL18 compared to no treatment or only IL12 and L18 treatment.
Where [2] appears, read: treatment with TL1A (TL1A+IL12+IL18).

B1: TL1A: TNF Superfamily Member 15 (TL1A), cytokine encoded by TNFSF15, used to treat T-cells (protein)
chain: MAEDLGLSFGETASVEMLPEHGSCRPKARSSSARWALTCCLVLLPFLAGLTTYLLVSQLRAQGEACVQFQALKGQEFAPSHQQVYAPLRADGDKPRAHLTVVRQTPTQHFKNQFPALHWEHELGLAFTKNRMNYTNKFLLIPESGDYFIYSQVTFRGMTSECSEIRQAGRPNKPDSITVVITKVTDSYPEPTQLLMGTKSVCEVGSNWFQPIYLGAMFSLQEGDKLMVNVSDISLVDYTKEDKTFFGAFLL
For the molecule B1, the miR-155 expression result (FIG. 13B) is on record as “upregulation”. For the same molecule, under setting [1], the “miR-155 3p” value was “upregulation” and the “miR-155 5p” value is reported as “upregulation”. Moreover, the “IL22 mRNA” value (cells treated with TL1A (TL1A+IL12+IL18)) is reported as “increased”. Under setting [2], the INFG secretion entry is listed as “increase” and the “levels of INFG mRNA” value is given as “increase”.
